# Source: the DeepSol protein solubility set
# Assay: soluble on expression in E. coli; label from the status in PepcDB or PDB records
row,Sequence,soluble on expression in E. coli
1,MKTSPRRPLILKRRRLPLPVQNAPSETSEEEPKRSPAQQESNQAEASKEVAESNSCKFPAGIKIINHPTMPNTQVVAIPNNANIHSIITALTAKGKESGSSGPNKFILISCGGAPTQPPGLRPQTQTSYDAKRTEVTLETLGPKPAARDVNLPRPPGALCEQKRETCADGEAAGCTINNSLSNIQWLRKMSSDGLGSRSIKQEMEEKENCHLEQRQVKVEEPSRPSASWQNSVSERPPYSYMAMIQFAINSTERKRMTLKDIYTWIEDHFPYFKHIAKPGWKNSIRHNLSLHDMFVRETSANGKVSFWTIHPSANRYLTLDQVFKQQKRPNPELRRNMTIKTELPLGARRKMKPLLPRVSSYLVPIQFPVNQSLVLQPSVKVPLPLAASLMSSELARHSKRVRIAPKVLLAEEGIAPLSSAGPGKEEKLLFGEGFSPLLPVQTIKEEEIQPGEEMPHLARPIKVESPPLEEWPSPAPSFKEESSHSWEDSSQSPTPRPKKSYSGLRSPTRCVSEMLVIQHRERRERSRSRRKQHLLPPCVDEPELLFSEGPSTSRWAAELPFPADSSDPASQLSYSQEVGGPFKTPIKETLPISSTPSKSVLPRTPESWRLTPPAKVGGLDFSPVQTPQGASDPLPDPLGLMDLSTTPLQSAPPLESPQRLLSSEPLDLISVPFGNSSPSDIDVPKPGSPEPQVSGLAANRSLTEGLVLDTMNDSLSKILLDISFPGLDEDPLGPDNINWSQFIPELQ,soluble
2,MSLKKKTTLSEEDQALFRQLMAGTRKIKQDTIVHRPQRKKISEVPVKRLIQEQADASHYFSDEFQPLLNTEGPVKYVRPDVSHFEAKKLRRGDYSPELFLDLHGLTQLQAKQELGALIAACRREHVFCACVMHGHGKHILKQQTPLWLAQHPHVMAFHQAPKEYGGDAALLVLIEVEEWLPPEGHHHHHH,soluble
3,MGHHHHHHSHMMQESGTETKSNGSAIQNGSGGSNHLLECGGLREGRSNGETPAVDIGAADLAHAQQQQQQWHLINHQPSRSPSSWLKRLISSPWELEVLQVPLWGAVAETKMSGPVCQPNPSPF,not soluble
4,GPGSMLYDEEECIKVIVVGDGNVGKTCMLRRFVRGDFVEQYRKTIGAEFMEKDVFLRSSKTMVKLMLWDTAGQEVFNALTQAYYRGAGAAILTFSTVDRDSLMSIAGWKQRVESVCGCITMVLCQTKFDLSHEAVITHAEAEGLASQLEVPLFRVSAKDDFNVRQLFEFTAQQCVENSAQDEAPVDDMP,not soluble
5,MSLAQAMKIAIVDDEQDMRQSISQWLALSGYDTETFASAEEALKVLGSEYPGIVISDIKMPGMDGMQFLKKLMGADSSLPVIMITGHGDVPMAVEAMRVGAFDFLEKPFNPDRMSDLAKRASNARRLTLDNRALRRELSDGGQIMKKLIGTSPVMERLREDILDLGQADGHVLIDGETGTGKTLVAHALHAVGSRAGKKFVLVSCSALEEEALAKRLFGPMIPEDAQLPAIEEARGGTLVLEDVESLSDALQAKLLSVMNQQGTPAETRIVAISNLQEAGKTSEDVLRPDLFYRLAALRLTMPPLRQRGEDILTLFTRLSEQFAEEYGCDAPQVSAQEAAQLLQAPWPGNVRQLINIAERAVLQARRGSGTIASLLMSDHEDEGHHHHHH,soluble
6,MSLNSIKDVDLSEITAGKKYWNVERPVEEEVMYFLLIDRFHDGKERISIPSTTGFGNTDQLQARCGGTIQGVIKNLKYISALGFTSIWINPFLQNNPETYHGYSIENFLEVDAQWGTKEDIVELVAQAHKLHIKVFFDIVLNHTGNNWSYVKENPRYNKGKQYAVKAWRYPDRPIPAELRNLNLYGRKGGIVKWEETPETWDGDIFELKDLIQDDSEIGHATLEILIAVYSYWFAVTDCDGFRIDAAKHIPPKWLNTFVDAMKALTASVHKTSFFIFAEIISNQSYISKYHTIDGYLDFDFHFSFVPNMYGEKKRKSAIQSQPRPVDKVPIRFLDNHDQVGQMPKHRIAYRMKEKALCNLLRAFLCMPGIPCIYYGTEQGLKGKGILDGSIRECLFNPDGKEDILNLDSPYARVIKEGIHLRKKLNLYTGDFQSCEIMAAKSHRCIALQVNGLASSKLIVYNLGPHNEVVSIKLSSPLTRTNKLVVYLYSNGDADNDDKTVVNDILHNITMHPYGFKVLELLNHQESVNEGHHHHHH,soluble
7,MATISSLGSSGLELEGILEKLQAAEEKKLTLITARQASYETRISAYSKIQAAVEAVQKAAATLGSIDTLSAVKAVVSGDGLSVKTAAGAVPGQYTVNIDKLATAQNLQSGELDSRTDKHGTGGSIEIVQKDGTTTTVTLGEDTSLNGIVKAINGTDGLDVRATVISDGNGKHYLMLNNKTEGTEAAVTRITVSGNQEVADILDFDAANAGASNLTVQLAAQKAELTINGIPVVSDTNTVETAIDGLTLTLTKQTAAPLTVTVSSDPSVAATAVNDFVKAYNGLQTTIADLTAFDVKAEKQSALTGDGTTRNIQSAIAAALRVATGEGTLRTLSQLGITTDPKTGSLKTDTEKLEAALRDNPADVARIFSGPFGLGEKVKLATEQILGDEGSIKIRQEGLEETLESLQNQYDRQKLSIAATIEAYRKQFVQLDVFVTQMNNTSNYLSQQFAALSGTKK,not soluble
8,TGSGELLLTSPKGSLTLFAYPGKPSLVTVSDFSAGLLDGTVAVNHMDYDLKSKHTETLVQLNGIPIQSLLDLQGASKLSATGTIRGAIPVVLDNNLFSIPEGRMDAEKNGLIIYASTPEERAAAGAGMRLTYEALGNFFYSELVSNIVMTPDGNSTISIQLKGRNPDFQNNRPVNLNLNIQQNLLDLFRSLTLSSDIEEAISKKVLENSGG,not soluble
9,QGEIRVGPSHQAKLPDLQPFPSPDGDTVTQHEELVWMPGVNDCDLLMYLRAARSMAAFAGMCDGGSTEDGCVAASRDDTTLNALNTLHESGYDAGKALQRLVKKPVPKLIEKCWTEDEVKRFVKGLRQYGKNFFRIRKELLPNKETGELITFYYYWKKT,not soluble
10,MNDFSLELPVRTNKPRETGQSILIDNGYPLQFFKDAIAGASDYIDFVKFGWGTSLLTKDLEEKISTLKEHDITFFFGGTLFEKYVSQKKVNEFHRYCTYFGCEYIEISNGTLPMTNKEKAAYIADFSDEFLVLSEVGSKDAELASRQSSEEWLEYIVEDMEAGAEKVITEARESGTGGICSSSGDVRFQIVDDIISSDIDINRLIFEAPNKTLQQGFIQKIGPNVNLANIPFHDAIALETLRLGLRSDTFFLLEHHHHHH,not soluble
11,MGSDKIHHHHHHATTLLVSCSNQQTQTKAITVSDTTLLSAEEFSQKIKKEPNALILDVRTPEEFSEAHIANATNVNWKDNFASGITEVNKNQPVLVYCLSGGRSASASDYLRKNGYTQVYELQGGLLKWQASNFEVVADTVTAAQDSGMTLQQFEALLVTDKYVLIDFYATWCGPCKMMEPALEDIAATMSDKVIVVRIDVDKNEELSKHFEVESLPTVQIYKNKKLVWEDIGYKTKKQLVSQLK,not soluble
12,TPQQRRLSMARRTAASLGYNECVSYTFIDQASAALFGGGTDATMLENPISSEMSHMRPDLLPGLLAAAARNQARGFADLALFEAGPVFHGGEPGEQRAQIAGLLVGRTGPKDVHGAARAVDLYDAKADAEAVLAAMGAPAKVQILRDGDGWWHPGRHGRICLGPKKVLGVFGELHPRVLQAMDVKGPAVAFVLWPEEVPLPRKSGTTRAALAL,not soluble
13,MPAPQVMPAKVAPLPTSFRGTSVDGSFSVDASGNLLITRDIRNLFDYFLSAVGEEPLQQSLDRLRAYIAAELQEPARGQALALMQQYIDYKKELVLLERDLPRLADLDALRQREAAVKALRARIFSNEAHVAFFADEETYNQFTLERLAIRQDGKLSAEEKAAAIDRLRASLPEDQQESVLPQLQSELQQQTAALQAAGAGPEAIRQMRQQLVGAEATTRLEQLDRQRSAWKGRLDDYFAEKSRIEGNTGLSEADRRAAVERLAEERFSEQERLRLGALEQMRQAEQR,not soluble
14,MAMKIPKSGYNRFMKEGAQHFKGTDEAVQRNIEACTELASQIRSAYGPNGMNKMVINHIEKLFVTNDAATILKELEIQHPAARIIIMATEMQEKQIGDNTNTVVILAAALLEHAANLIHMGMTPQEVAAGYEQAAEKALEILPTLVVKEATDMKNIEEVRQYIRSAITSKQYDNEDIIADLVAKACVTTCPANSFNFNVDNIRICKIIGSGVHTSTVMNGMVFKRGAEGEIREARDARIAVYTCPFDLTQTETKGTVLIENADELRNFSKGEEAEVEEQVKAIADNARSSILAKFWLMNFSKGEEAEVEEQQVKAIADNGVKVVVAAGKFGDMYLHFLNKYKIMAVRLTSKFDLRRLCRTVGAQPQARICAPAVNLLGHCDSVAVQEIGDENVVVFDKKSETGKVATIIIRGSSQSRIDDVERAVDDAVNTYKALTKDGKLLAGAGAVEIELAKEIESFGAKAPGLEQYAIKKFAHALETLPKAIAENAGMPTTETLTKLYAEHVAGKKNAGIDIWKRETMDAVVNNIFDLYAGKRLAIKLATDAASTILKVDQIIMSKQATGGPKPRGPKAQDEDDDGMA,not soluble
15,MSTEPQFENPFIDRQLDGSKIHEISGHRFKATALVQPTCCAICSKLIYGLGKQGYRCLGCETVVHKRCHSLINDRCNFGPSSPRQPPPQELSSDSGELRHRIPSPTEPQVSTNHHFNKHFYTRPTFCDHCGSLLYGLSKQGVQCSDCLANVHHRCKEKAVHNCIVSSQ,not soluble
16,MSRVYTLLTGLLLSLIALSLQAAQLTASVDRTRLNAGETVELTLETDDVTQFGKPDMSSLEASFEVRDTRQLNSLKTLDGSSQATTRWIVTLLPRETGSVIIPSLQLGELKSQPLTLQVMQSETKEPTSHLASIFIEASLDQDSVYVQAQAVLTLRVYHSVSLFDDSSLN,not soluble
17,MGHHHHHHSHMKNLINWFEIPVTDMARAIAFYEQVMQISLRRETMDGADLAVFPYAEPGPGGALIKQDDVAPVAQGVVIYLHTADLLASIERVVLAGGKCVLEPMVPGDDIGTIALFIDSEGNRIGLHQPA,soluble
18,MQKKYYEDSHQDSYLLGVKEKDEVLLTALMRKIKNHTGDVYEIMGGPLVDFENENNNQIIAFFLKELHKYLKKQHAYYLRIVPNEKTQRVENNGKVVNYDLKNYSSLYFAEGFIYRSFEQVGYGFATPHYEYQKRIEGLNKKTLFQSYSKKTQYSIKKTYEFGITTRNISYDELEMFHENTTKTAKRLGFYDKELSYYQSVYRTFGDNAKFMIAEINLSDYIGHFQEIIRNLKDKIDQMILIDSKREKPTKTRQIKELRSQVEQHEKRIVQAKKLIEQYGKKINLAGALFFIQPQEVSYMFSYTNAEFKNFYGPYRTQADMLEFALKEKVPVYNFYGVSGDRSGHDGVYEFKKGFQGYMVDNMGAFILPINKFRYQFLQTIKKIIRRR,not soluble
19,GPVKLRLTVLCAKNLVKKDFFRLPDPFAKVVVDGSGQCHSTDTVKNTLDPKWNQHYDLYIGKSDSVTISVWNHKKIHKKQGAGFLGCVRLLSNAINRLKDTGYQRLDLCKLGPNDNDTVRGQIVVSLQSRD,soluble
20,MRILIPFKANNPKSRLSSILSEEERKELARLMLLDVIDAAKPFGEIKVVCPSELDVEGVEVVVDTSDLNTTVNKVMDEAPLAVIMSDLPLLSEEVLKRFFETEGDVVVAPGRKGGTNMLLVRKRGFRVSYHFGSFFKHLEMARKMGMKAKIFDSFYSSVDIDDESDLLELMMHGSGKKSYEFLRKIGFSVSFEETPRLERRVFMQP,soluble
21,TCGLRQYSQPQFRIKGGLFADIASHPWQAAIFAKHRRSPGERFLCGGILISSCWILSAAHCFQERFPPHHLTVILGRTYRVVPGEEEQKFEVEKYIVHKEFDDDTYDNDIALLQLKSDSSRCAQESSVVRTVCLPPADLQLPDWTECELSGYGKHEALSPFYSERLKEAHVRLYPSSRCTSQHLLNRTVTDNMLCAGDTRSGGPQANLHDACQGDSGGPLVCLNDGRMTLVGIISWGLGCGQKDVPGVYTKVTNYLDWIRDNMRP,soluble
